Results as given in patent publication US20240124553A1 (WASHINGTON UNIVERSITY, published 2024).

Tests used:
Test in all cases: flow cytometry, transfected 293T cells
[1] = target: T1, CHIKV E2-E1 envelope glycoproteins (strain S27), E2 mutant D132A (chikungunya virus strain S27, UniProt Q8JUX5 1-1248; Q8JUX5 810-1248)
T1 construct: whole, on cells; E2 domain A

[2] = target: T2, CHIKV E2-E1 envelope glycoproteins (strain S27), E2 mutant R36A (chikungunya virus strain S27, UniProt Q8JUX5 1-1248; Q8JUX5 810-1248)
T2 construct: whole, on cells; E2 domain A

[3] = target: T3, CHIKV E2-E1 envelope glycoproteins (strain S27), E2 mutant K66A (chikungunya virus strain S27, UniProt Q8JUX5 1-1248; Q8JUX5 810-1248)
T3 construct: whole, on cells; E2 domain A

[4] = target: T4, CHIKV E2-E1 envelope glycoproteins (strain S27), E2 mutant A76S (chikungunya virus strain S27, UniProt Q8JUX5 1-1248; Q8JUX5 810-1248)
T4 construct: whole, on cells; E2 domain A

[5] = target: T5, CHIKV E2-E1 envelope glycoproteins (strain S27), E2 mutant R104A (chikungunya virus strain S27, UniProt Q8JUX5 1-1248; Q8JUX5 810-1248)
T5 construct: whole, on cells; E2 domain A

[6] = target: T6, CHIKV E2-E1 envelope glycoproteins (strain S27), E2 mutant F115A (chikungunya virus strain S27, UniProt Q8JUX5 1-1248; Q8JUX5 810-1248)
T6 construct: whole, on cells; E2 domain A

[7] = target: T7, CHIKV E2-6K-E1 envelope proteins (strain S27) with E2 I217A (Chikungunya virus strain S27, UniProt Q8JUX5 1-1248; Q8JUX5 810-1248)
T7 construct: whole, on cells

B1: Mxra8-Fc (mouse Mxra8 extracellular domain fused to mouse IgG2b Fc) (Fc fusion)
chain: SGPSGTAAASSSLVSESVVSLAAGTQAVLRCQSPRMVWTQDRLHDRQRVVHWDLSGGPGSQRRRLVDMYSAGEQRVYEPRDRDRLLLSPSAFHDGNFSLLIRAVDRGDEGVYTCNLHHHYCHLDESLAVRLEVTEDPLLSRAYWDGEKEVLVVAHGAPALMTCINRAHVWTDRHLEEAQQVVHWDRQLPGVSHDRADRLLDLYASGERRAYGPPFLRDRVSVNTNAFARGDFSLRIDELERADEGIYSCHLHHHYCGLHERRVFHLQVTEPAFEPPARASPGNGSGHSSAPSPDPTLTRGHSIINVIVPEDHTHPSGPISTINPCPPCKECHKCPAPNLEGGPSVFIFPPNIKDVLMISLTPKVTCVVVDVSEDDPDVQISWFVNNVEVHTAQTQTHREDYNSTIRVVSTLPIQHQDWMSGKEFKCKVNNKDLPSPIERTISKIKGLVRAPQVYILPPPAEQLSRKDVSLTCLVVGFNPGDISVEWTSNGHTEENYKDTAPVLDSDGSYFIYSKLNMKTSKWEKTDSFSCNVRHEGLKNYYLKKTISRSPGK
Binding Reactivity (% WT) [1]: 105 % WT | Binding Reactivity (% WT) [2]: 68.3 % WT | Binding Reactivity (% WT) [3]: 93.1 % WT | Binding Reactivity (% WT) [4]: 85 % WT | Binding Reactivity (% WT) [5]: 49.9 % WT | Binding Reactivity (% WT) [6]: 3.3 % WT

B2: Mxra8-Fc (mouse Mxra8 extracellular domain fused to mouse IgG2b Fc) (Fc fusion)
chain: SGPSGTAAASSSLVSESVVSLAAGTQAVLRCQSPRMVWTQDRLHDRQRVVHWDLSGGPGSQRRRLVDMYSAGEQRVYEPRDRDRLLLSPSAFHDGNFSLLIRAVDRGDEGVYTCNLHHHYCHLDESLAVRLEVTEDPLLSRAYWDGEKEVLVVAHGAPALMTCINRAHVWTDRHLEEAQQVVHWDRQLPGVSHDRADRLLDLYASGERRAYGPPFLRDRVSVNTNAFARGDFSLRIDELERADEGIYSCHLHHHYCGLHERRVFHLQVTEPAFEPPARASPGNGSGHSSAPSPDPTLTRGHSIINVIVPEDHTHPSGPISTINPCPPCKECHKCPAPNLEGGPSVFIFPPNIKDVLMISLTPKVTCVVVDVSEDDPDVQISWFVNNVEVHTAQTQTHREDYNSTIRVVSTLPIQHQDWMSGKEFKCKVNNKDLPSPIERTISKIKGLVRAPQVYILPPPAEQLSRKDVSLTCLVVGFNPGDISVEWTSNGHTEENYKDTAPVLDSDGSYFIYSKLNMKTSKWEKTDSFSCNVRHEGLKNYYLKKTISRSPGK
Binding Reactivity (% WT) [7]: 12.3 % WT
